Measurements: patent US20240066137A1, “NOVEL PROTEIN CONJUGATE, AND USE THEREOF FOR PREVENTING OR TREATING NONALCOHOLIC STEATOHEPATITIS, OBESITY AND DIABETES” (ONEGENE BIOTECHNOLOGY INC., priority 2020, published 2024)
Read-outs that look alike come from different tables or passages of the source.

Molecular target: FGFR1/KLB (Homo sapiens, UniProt P11362+Q86Z14)
Test: FGFR1/KLB functional assay (PathHunter)
Assay type: cell-based
Protocol: The cells were cultured to 70-80% full in a T-75 flask. The medium was removed and washed with 5 mL of the pre-warmed PBS. PBS was removed, and 2 mL of AssayComplete cell detachment reagent was added, and then incubated in an incubator at 37° C. and 5% CO2 for 3 minutes, and the attached cells were detached. It was mixed with 6 mL of AssayComplete cell plating 0 reagent, and the mixture was transferred to a 15 mL tube, centrifuged at 1,000 rpm for 3 minutes, and then again released in 5 mL of cell plating reagent. The number of cells was counted, and the concentration was allowed to be 500,000 cells/mL. It was transferred to a reservoir, and 40 μL per well was dispensed into a white 96-well half-area cell culture plate using a multi-channel pipette (20,000 cells/well). Only 40 μL of cell plating reagent was dispensed into the blank well. The cells were incubated in an incubator at 37° C. and 5% CO2 for 24 hours to allow to be attached.
10 μL of each of rhFGF21 (5×) and test sample (5×) prepared by 4-fold serial dilution was dispensed in duplicate and cultured at room temperature for 4 hours. 10 μL of AssayComplete cell plating 0 reagent was added to the control and blank wells. After the culture was completed, the medium was removed, and 50 μL of AssayComplete cell plating 0 reagent was added. 30 μL of Detection reagent was dispensed and reacted in a state where light was blocked at room temperature for 1 hour, and then the luminescence was measured with a plate reader.
The luminescence of the sample in the plate was measured with a Synergy Neo2 instrument.
The Delta RLU (relative luminescence unit) (ΔRLU) was calculated as follows.
ΔRLU=RLUsample−RLUblank=Signal−background luminescence
In addition, the fold induction relative to the control group was calculated as follows.
The EC50 values were obtained based on fold induction values by each concentration using GraphPad Prism 8, as follows (curve-fitting of the log (agonist) vs. normalized response−variable slope equation).
In order to test the activity levels of the native FGF21 and the FGF21 analogue at the cellular level (in vitro), the FGFR1/KLB functional assay was performed in the same manner as in Test Example 2.

Chain of FGFR1/KLB (P11362 22-822): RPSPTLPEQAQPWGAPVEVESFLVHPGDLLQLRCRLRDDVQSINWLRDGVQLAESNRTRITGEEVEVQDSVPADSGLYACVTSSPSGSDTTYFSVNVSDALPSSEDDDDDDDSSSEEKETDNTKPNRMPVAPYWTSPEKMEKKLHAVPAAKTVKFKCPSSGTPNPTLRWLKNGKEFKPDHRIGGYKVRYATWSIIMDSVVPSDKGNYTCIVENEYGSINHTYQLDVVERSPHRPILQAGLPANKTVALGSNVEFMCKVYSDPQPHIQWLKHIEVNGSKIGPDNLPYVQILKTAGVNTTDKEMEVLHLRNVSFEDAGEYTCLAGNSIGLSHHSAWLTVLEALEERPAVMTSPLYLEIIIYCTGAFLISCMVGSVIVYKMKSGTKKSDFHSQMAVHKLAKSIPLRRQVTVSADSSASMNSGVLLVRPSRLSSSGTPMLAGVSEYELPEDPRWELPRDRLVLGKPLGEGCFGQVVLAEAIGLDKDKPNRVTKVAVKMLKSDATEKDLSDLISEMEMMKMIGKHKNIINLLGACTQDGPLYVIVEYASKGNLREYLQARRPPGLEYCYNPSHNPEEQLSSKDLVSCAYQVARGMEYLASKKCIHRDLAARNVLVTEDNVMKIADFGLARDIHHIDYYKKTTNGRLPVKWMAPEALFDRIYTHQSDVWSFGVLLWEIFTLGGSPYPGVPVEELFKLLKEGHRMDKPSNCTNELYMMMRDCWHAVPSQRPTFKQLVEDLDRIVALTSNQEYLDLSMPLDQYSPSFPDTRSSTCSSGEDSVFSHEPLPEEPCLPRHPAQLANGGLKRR
Chain of FGFR1/KLB (Q86Z14 whole entry): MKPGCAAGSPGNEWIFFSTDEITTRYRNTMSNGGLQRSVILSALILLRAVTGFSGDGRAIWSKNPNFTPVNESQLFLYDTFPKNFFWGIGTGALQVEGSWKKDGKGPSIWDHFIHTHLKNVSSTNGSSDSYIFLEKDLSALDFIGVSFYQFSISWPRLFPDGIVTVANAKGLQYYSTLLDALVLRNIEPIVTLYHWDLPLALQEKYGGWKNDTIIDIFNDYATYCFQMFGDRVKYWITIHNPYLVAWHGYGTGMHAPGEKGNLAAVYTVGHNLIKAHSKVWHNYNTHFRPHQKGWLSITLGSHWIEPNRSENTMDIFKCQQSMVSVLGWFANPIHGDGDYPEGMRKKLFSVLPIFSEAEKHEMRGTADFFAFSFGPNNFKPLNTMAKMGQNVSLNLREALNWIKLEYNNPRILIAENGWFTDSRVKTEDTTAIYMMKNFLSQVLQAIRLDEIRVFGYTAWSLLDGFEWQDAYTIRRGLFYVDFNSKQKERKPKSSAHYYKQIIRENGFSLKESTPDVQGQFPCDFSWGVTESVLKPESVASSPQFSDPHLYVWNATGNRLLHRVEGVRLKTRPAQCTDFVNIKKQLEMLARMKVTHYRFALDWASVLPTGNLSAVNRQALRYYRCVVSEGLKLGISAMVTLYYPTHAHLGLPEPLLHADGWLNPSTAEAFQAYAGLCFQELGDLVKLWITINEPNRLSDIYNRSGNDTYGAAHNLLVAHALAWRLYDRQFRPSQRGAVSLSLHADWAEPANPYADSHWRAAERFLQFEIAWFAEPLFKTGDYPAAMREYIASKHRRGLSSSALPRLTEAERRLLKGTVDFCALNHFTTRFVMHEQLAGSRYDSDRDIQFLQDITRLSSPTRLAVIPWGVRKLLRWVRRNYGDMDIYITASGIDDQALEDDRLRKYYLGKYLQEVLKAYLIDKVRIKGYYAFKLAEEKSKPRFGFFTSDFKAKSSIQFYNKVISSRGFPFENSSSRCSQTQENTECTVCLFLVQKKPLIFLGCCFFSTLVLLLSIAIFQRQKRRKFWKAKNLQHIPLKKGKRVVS

B1: rhFGF21: native FGF21, SEQ ID NO: 17 (protein)
chain: HPIPDSSPLLQFGGQVRQRYLYTDDAQQTEAHLEIREDGTVGGAADQSPESLLQLKALKPGVIQILGVKTSRFLCQRPDGALYGSLHFDPEACSFRELLLEDGYNVYQSEAHGLPLHLPGNKSPHRDPAPRGPARFLPLPGLPPALPEPPGILAPQPPDVGSSDPLSMVGPSQGRSPSYAS
modifications: FGF21 native
Test Example 2, mean of 2 runs, read-out: EC50, Mean
  EC50: 0.82 nM
Test Example 2, run 1, read-out: EC50, 1
  EC50: 0.75 nM
Test Example 2, run 2, read-out: EC50, 2
  EC50: 0.88 nM
Test Example 9 screening, read-out: EC50
  EC50: 1.17 ± 0.56 nM
